Substitutions are numbered along the chain they refer to. Like-named read-outs stand apart in the source and are kept apart here.
B1: H1M3621N (antibody, V domains shown)
VH: QVQLEQSGAEVKKPGASVRISCKASGDTFTGYYINWVRQAPGQGLEWMGWINTNSGGTYFSQKFQVRVILTRDTSINTAYMELSRLRSDDTAVYYCARMFYDILTNSDIFDIWGQGTMVTVSS
VL: DIQMTQSPSSLSASVGDRVTITCRASQDIRNDLGWYQQKPGKAPKCLIYGASSLQSGVPSRFSGSGSGTEFTLTISSLQPEDFATYYCLQHKNYMYTFGQGTKLEIK
B2: H1H3592P (antibody, V domains shown)
VH: EVQLVESGGDLVQPGRSLRLSCVASGFTFDDYAMHWVRQAPGKGLEWVSGVSWSGSTVGYADSVKGRFTVSRDNAQKSLYLQMNSLRAEDTALYYCVKDAYKWNYYYYGLDVWGQGTTVTVSS
VL: EIVMTQSPATLSVSPGERATLSCRASQTILSNLAWYLQKPGQAPRLLIYGASTRATGLPARFSGSGSGTEFTLTISSLQSEDFAVYYCQQYNNWPLTFGGGTKVEIK
B3: H1H3592P2 (antibody, V domains shown)
VH: B2 VH with W103Y
VL: B2 VL
B4: H1H3564P (antibody, V domains shown)
VH: QVQLVQSGAEVKKPGSSVKVSCKASGGTLSNNAFSWVRQAPGQGLEWLGGFNPIFDTANYAQKFQGRITITLDASTGTVYMELSSLRSEDTGVYYCAGTGAHFEFWGQGTLVTVSS
VL: DIQMTQSPSSLSASVGDRVTITCRTSQSISTYLNWYQQKPGKAPKFLIYAASTLQSGVPSRFSGSGSRTDFTLTISSLQPEDFATYYCQQSVSVPYTFGQGTKLEIK
B5: H1H3565P (antibody, V domains shown)
VH: QVQLVESGGGVVQPGRSLRLSCAASGFTFNSYGMHWVRQAPGKGLEWVTFIWSDGSNKYYLDSVKGRFTISRDNSKNTLYLQMNSLRAEDTAVYYCARSGLASYYYYGMDVWGQGTTVTVSS
VL: B1 VL with D28G, C46R, Y87S, K92N, N93S, M95P, Y96W, L104V
B6: H1H3566P (antibody, V domains shown)
VH: B5 VH with N30S, T49V, I51L, S53Y, Y59H, L61A, G108S
VL: B1 VL with D28G, G34A, C46R, Q55H, Y87S, K92N, N93S, M95P, Y96W, L104V
B7: H1H3567P (antibody, V domains shown)
VH: QVQLVQSGAEVKKPGASVKVSCKASGYTLTGYYLHWVRQAPGQGLEWMGWINPTSGGTNYAQKFQGRVTMTRDTSISAAFMELSRLRSDDTAVYHCAREFWPHGMDVWGQGTTVTVSS
VL: AIQMTQSPSSLSASVGDRVTITCRASQAIRNDLGWYQQKPGKAPKLLIYASSSLQSGVPSRFSGSGSGTDFTLTISSLQPEDFATYYCLADYKYTWTFGQGTKVEIK
B8: H1H3581P (antibody, V domains shown)
VH: EVQLVESGGGLVHPGGSLRLSCEASGFTLSSHVMSWVRQVPGKGLEWVSRISGPGGSTKYADSVQGRFTTSRDNSKNTLYLQMNSLIAEDSAAYYCAKGGGYSGYDWDFYYGMDVWGQGTTVTVSS
VL: DIQMTQSPSSVSASVGDRVTITCRASQGISSWLAWYQQKPGKAPKLLIYAASSLQSGVPSRFSGSGSGTDFTLTISSLQPEDFATYYCQQTNSFPLTFGGGTKVDIK
B9: H1H3583P (antibody, V domains shown)
VH: QVQLVQSGAEVKKSGSSVKVSCKASGGTFSSYAISWVRQAPGQGLEWMGGIIPIFGTGNYAQKFQGRVTITTDESTSTAYMELSSLRSEDTAVYYCARDSSSSPRYYGMDVWGHGTTVTVSS
VL: EIVLTQSPATLSLSPGERATLSCRASQSVTSYLAWYQQKPGQAPRLLIYDVSKRATGIPARFSGSGSGTDFTLTISSLEPEDFATYYCQQRSNWPPTFGQGTRLEIK

How the values were obtained:
[1] = molecular target: RSV-F of RSV subtype A strain A2 (1540) (respiratory syncytial virus subtype A, …, UniProt P03420 26-574); assay: cell-based or functional assay
RSV-F.mmh [2] = molecular target: T1, RSV-F.mmh (Respiratory Syncytial Virus); assay: SPR (Biacore), mAb captured via Fc, soluble RSV-F.mmh injected, 25 C
T1 construct: also called recombinant RSV-F; soluble monomeric RSV-F

RSV-F.mmh [3] = molecular target: T1, RSV-F.mmh; assay: as above; remark: listed apart in the source

| Binder | IC50 [pM] for RSV A2 Neutralization, Trial 1 [1] | Kd (RSV-F.mmh [3]) | koff (RSV-F.mmh [3]) | kon (RSV-F.mmh [3]) | t½ (RSV-F.mmh [3]) | also measured |
| --- | --- | --- | --- | --- | --- | --- |
| B1 | 582 pM |  |  |  |  | IC50 [pM] for RSV A2 Neutralization, Trial 2 [1]: 180 pM; Kd (RSV-F.mmh [2]): 1.01 nM; koff (RSV-F.mmh [2]): 0.000208 s⁻¹; kon (RSV-F.mmh [2]): 205000 M⁻¹ s⁻¹; t½ (RSV-F.mmh [2]): 56 min |
| B2 |  | 4.39 nM | 0.000466 s⁻¹ | 106000 M⁻¹ s⁻¹ | 25 min | IC50 [pM] for RSV A2 Neutralization, Trial 4 [1]: 6 pM; IC50 [pM] for RSV A2 Neutralization, Trial 6 [1]: 5 pM; IC50 [pM] for RSV A2 Neutralization, Trial 7 [1]: 4 pM |
| B3 |  | 14.7 nM | 0.00146 s⁻¹ | 99300 M⁻¹ s⁻¹ | 8 min |  |
| B4 | > 10000 pM | 25 nM | 7.78e-05 s⁻¹ | 3100 M⁻¹ s⁻¹ | 148 min |  |
| B5 | > 10000 pM | 3.01 nM | 5.8e-05 s⁻¹ | 19300 M⁻¹ s⁻¹ | 199 min |  |
| B6 | > 10000 pM | 2.06 nM | 4.2e-05 s⁻¹ | 20400 M⁻¹ s⁻¹ | 275 min |  |
| B7 |  | 43.4 nM | 0.00263 s⁻¹ | 60500 M⁻¹ s⁻¹ | 4 min | IC50 [pM] for RSV A2 Neutralization, Trial 4 [1]: 257 pM; IC50 [pM] for RSV A2 Neutralization, Trial 6 [1]: 390 pM |
| B8 | > 10000 pM |  |  |  |  | binding result (RSV-F.mmh [3]): no binding |
| B9 |  | 34.4 nM | 0.00308 s⁻¹ | 89400 M⁻¹ s⁻¹ | 4 min | IC50 [pM] for RSV A2 Neutralization, Trial 5 [1]: 50 pM |

Source: patent publication US20140271653A1 (Regeneron, published 2014)
